Experimental data from US20230374147A1.

Molecular target: His-tagged mouse BCMA (Acro Biosystems, BCA-M52H3) (mouse) (UniProt O88472)
Assay: ELISA, hybridoma supernatant, coated His-tagged antigen

His-tagged mouse BCMA (Acro Biosystems, BCA-M52H3) (mouse), sequence (O88472 1-49 limits assumed): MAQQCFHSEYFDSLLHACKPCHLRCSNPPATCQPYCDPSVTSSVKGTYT

- ELISA values (OD 450 nm): 0.025 OD
B1: 539-SP5-D7 (antibody produced by the hybridoma) (antibody, V domains shown)
VH: EVMLVDSGGNLVKPGGSLKLSCAASGFTFSNYVISWVRQTPEKRLEWVATISTVGTNTYYPDSVRGRFTISRDNAENTLYLQMSSLRSEDTAIYYCSRHKYGYDDPSYAMDYWGQGTSVTVSS
VL: QLVLTQSSSASFSLGASAKLTCTLSSQHSTYTIEWYQQQPLKPPKYVMELKKDGSHSTGDGIPDRFSGSSSGADRYLSISNIQAEDEAIYICGVGDTVKEQFVYVFGGGTKVTVL
